Measurements as given in US20110217318A1 (MOCHIDA PHARMACEUTICAL, published 2011).

T1: cynomolgus monkey GPVI on cynomolgus monkey platelets (cynomolgus monkey, UniProt A0A2K5VXN2 21-318)
T1 construct: whole, on cells; also called simian platelets
T1 sequence: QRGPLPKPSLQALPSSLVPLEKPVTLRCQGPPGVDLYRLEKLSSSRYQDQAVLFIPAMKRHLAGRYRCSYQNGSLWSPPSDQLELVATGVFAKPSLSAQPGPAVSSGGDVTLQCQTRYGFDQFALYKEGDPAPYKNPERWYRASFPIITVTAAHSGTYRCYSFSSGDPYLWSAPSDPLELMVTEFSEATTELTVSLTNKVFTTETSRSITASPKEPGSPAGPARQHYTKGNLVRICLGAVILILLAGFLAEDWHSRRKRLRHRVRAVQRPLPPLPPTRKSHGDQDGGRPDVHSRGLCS

T2: human platelet membrane glycoprotein VI (GPVI) on human platelets (human, UniProt Q9HCN6 21-339)
T2 construct: whole, on cells
T2 sequence (looked up): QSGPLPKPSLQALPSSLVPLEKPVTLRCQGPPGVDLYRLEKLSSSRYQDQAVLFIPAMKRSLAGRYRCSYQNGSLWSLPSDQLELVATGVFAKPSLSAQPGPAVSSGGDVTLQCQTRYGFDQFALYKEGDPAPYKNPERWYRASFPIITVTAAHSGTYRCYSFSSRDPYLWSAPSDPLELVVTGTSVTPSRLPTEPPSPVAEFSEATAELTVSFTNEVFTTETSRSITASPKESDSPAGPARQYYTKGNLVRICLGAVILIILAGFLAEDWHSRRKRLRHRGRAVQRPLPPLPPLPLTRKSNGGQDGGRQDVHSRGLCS


Columns and labels:
[1] = target: T3, mouse GPVI extracellular region-human Fc fusion protein (mGPVI-hFc) (mouse); assay: competition ELISA, soluble GPVI-Fc against immobilised hGPVI-hFc
T3 construct: whole fusion entry; also called GPVI-MMM-hFc; mouse GPVI-Fc
Procedure: To the plate, wherein hGPVI-hFc has been immobilized at 4 μg/mL, a mixture of peroxidase-labeled F1232-37-2 or cF1232-37-2 by the method described in EXAMPLE 14, and hGPVI-hFc, mGPVI-hFc, hGPVI-mL3-hFc, wherein these were prepared in EXAMPLE 7, or hGPVI-K59E-hFc (a fusion protein consisting of one amino acid mutated human GPVI extracellular region, wherein lysine at 59 of human GPVI is substituted for glutamic acid, and human Fc), which has been prepared by the same method as that of EXAMPLE 1 and diluted with 0.1% BSA/PBS was added, and the plate was incubated at 37° C. for one hour. After incubation, the mixture was developed using TMB solution, and absorbance at 450 nm was measured.

[2] = target: T1, cynomolgus monkey GPVI on cynomolgus …; assay: homologous competitive binding of 125I-labelled antibody on washed cynomolgus monkey platelets, n=3, mean±S.E.
Procedure: (§1) ACD-A (acid citrate-dextrose) was added to the PRPs prepared from citrated blood obtained from healthy human or cynomolgus monkey to adjust the pH to 6.5. The obtained PRPs were collected by centrifugation at 2,000 rpm. The pelleted platelets were washed with HEPES Buffer (pH was adjusted to 6.5 with ACD-A). An appropriate quantity of HEPES Buffer (pH 7.4) was added to prepare platelet suspension. The number of platelets were determined with SYSMEX® F-820 (Sysmex Co.), then the above-described platelet suspension was diluted with HEPES buffer (pH 7.4) to platelet count at 6×10⁵ cells/μL.
(§2) To the diluted washed platelets, the labeled and non-labeled antibodies were added at final concentrations of 3 nM and 0-1250 nM, respectively, and mixed to obtain platelet count at 3×10⁵ cells/μL. After incubating the mixture on the ice for one hour, the reactant was passed through 30% sucrose/HEPE buffer (pH 7.4) layered column and centrifuged at 12,000 g for 5 min in order to separate the platelets and non-bound antibodies. The radioactivity of each fraction was measured using automatic gamma counter 1470 WIZARD (PerkinElmer Japan). Data was analyzed using GraphPad Prism software (Graph Pad Software, Inc.).

[3] = target: T2, human platelet membrane glycoprotein VI …; assay: homologous competitive binding of 125I-labelled antibody on washed human platelets, n=3, mean±S.E.
Procedure: as §1, §2

[4] = target: T4, human GPVI extracellular region-human Fc fusion protein (hGPVI-hFc) (human); assay: ELISA on immobilised hGPVI-hFc; ++ = absorbance 1.0 to 2.0
T4 construct: Expressed in COS-1, purified on Protein A; also called GPVI-HHH-hFc; hGPVIHHH-hFc
Procedure: The hGPVI-hFc prepared by EXAMPLE 1B was diluted with D-PBS to 2 μg/mL and added to immunoplate (Maxisorp, NUNC) at 50 μL/well. After incubation at 37° C. for one hour, the well was washed five times with ion-exchanged water, and D-PBS (pH7.4) containing 2% STABILGUARD® (chemical solutions for stabilizing biological molecules) (Surmodics) was added to each well in 100 μL for blocking. Next, culture supernatant was added to each well and incubated at 37° C. for one hour. After incubation, the well was washed three times with the saline containing 0.05% TWEEN®20 (Polyoxyethylene (20) sorbitan monolaurate). […] After incubation at 37° C. for one hour, washing in a similar manner was performed five times and TMB solution (BIOFX® (reagents for scientific or medical research) was added to each well. After ten minutes at room temperature, the reaction was terminated with 0.5 M sulfuric acid solution. Subsequently, absorbance at 450 nm was measured with the plate spectrophotometer (Multiscan JX, Dainippon Pharmaceutical). As a result, the cell whose culture supernatant reacted to hGPVI-hFc was selected and a cloning with limiting dilution method (“The Introduction to Monoclonal Antibody Experimental Procedure” written by Tamie Andoh and Takeshi Chiba (Kodansha, p97)) was performed. […]

[5] = target: T4, human GPVI extracellular region-human …; assay: SPR BIACORE 3000 as in Example 5 (the reference itself)

T3 sequence (chain, as listed by the source limits assumed): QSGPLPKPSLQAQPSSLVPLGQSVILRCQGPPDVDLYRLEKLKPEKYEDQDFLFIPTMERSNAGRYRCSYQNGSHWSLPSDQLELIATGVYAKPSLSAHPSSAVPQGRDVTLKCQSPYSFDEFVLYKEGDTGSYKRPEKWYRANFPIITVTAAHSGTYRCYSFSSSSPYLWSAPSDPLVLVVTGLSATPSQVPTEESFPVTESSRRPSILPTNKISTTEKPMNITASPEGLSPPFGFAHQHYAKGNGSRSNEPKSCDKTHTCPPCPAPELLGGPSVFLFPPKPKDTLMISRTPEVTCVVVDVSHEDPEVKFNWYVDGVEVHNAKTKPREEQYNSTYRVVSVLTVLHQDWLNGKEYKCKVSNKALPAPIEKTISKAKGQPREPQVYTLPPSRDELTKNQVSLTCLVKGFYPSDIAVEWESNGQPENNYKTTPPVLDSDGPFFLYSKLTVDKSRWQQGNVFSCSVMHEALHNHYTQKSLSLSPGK

Binder	binding result [1]	Kd [2] [nM]	Kd [3] [nM]	absorbance [4] [od]	KD (Relative value) [5]
cF1232-37-2 (mouse/human chimeric F1232-37-2) (antibody, V domains shown, V regions of F1232-37-2 on human IgG4 (Cgamma4) and human Ckappa constant regions; made in COS-1 (/COS) or CHO (/CHO); both preparations are kept under this one id; also called cF1232-37-2/COS; cF1232-37-2/CHO) VH: VQLQQSGPELVRPGESVKISCKGSGYTFTDYAIHWVKLSHAKSLEWIGVISIYYDDTNYNQKFKGKATMTVDKSSSTAYLELARLTSEDSAIYYCARRRDSSGPYAMDYWGQGTSVTVSS VL: DIVLTQSPASLAVSLGQRATISCRASESVDSYGNSFMHWYQQKPGQPPKLLIYRASNLESGIPARFSGSGSRTDFTLTINPVEADDVATYYCQQSNEDPYTFGGGTKLEIKR	no binding	20	17		
F1232-37-2 (antibody, V domains shown, mouse hybridoma monoclonal antibody; also called F1232-37-2 antibody; mouse monoclonal antibody F1232-37-2) VH: VQLQQSGPELVRPGESVKISCKGSGYTFTDYAIHWVKLSHAKSLEWIGVISIYYDDTNYNQKFKGKATMTVDKSSSTAYLELARLTSEDSAIYYCARRRDSSGPYAMDYWGQGTSVTVSS VL: DIVLTQSPASLAVSLGQRATISCRASESVDSYGNSFMHWYQQKPGQPPKLLIYRASNLESGIPARFSGSGSRTDFTLTINPVEADDVATYYCQQSNEDPYTFGGGTKLEIKR	no binding			1 to 2	1 relative to F1232-37-2 = 1
